Consider one molecule from patent publication US20120134997A1 (COMPUGEN, published 2012).

In this assay the target is T1, B7H4-Ig (R&D Systems, Inc. cat.#4206-B7) (mouse, UniProt Q7TSP5 29-256).
T1 construct: Bought reagent; also called Recombinant mouse B7-H4 protein (R&D Systems, CAT #4206-B7); not shown: Ig part of the bought fusion; not described
T1 sequence (looked up): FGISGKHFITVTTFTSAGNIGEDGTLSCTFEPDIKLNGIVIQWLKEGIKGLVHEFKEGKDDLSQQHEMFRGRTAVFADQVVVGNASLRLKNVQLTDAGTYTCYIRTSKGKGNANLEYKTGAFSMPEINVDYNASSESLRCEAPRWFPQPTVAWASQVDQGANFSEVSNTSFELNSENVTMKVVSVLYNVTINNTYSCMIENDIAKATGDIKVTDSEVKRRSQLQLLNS
In words: BIAcore 3000 surface plasmon resonance; Fc fused AI216611 ECD (SEQ ID NO:104) immobilised directly on a CM5 chip (400-500 RU), B7H4-Ig injected at 5 and 10 µM, empty flow cell subtracted. The protocol:
Solution containing two different concentrations of B7H4-Ig (5 and 10 micro molar) was injected. As control, the solutions were also injected onto an empty flow cell with no ligand immobilized.
Data was analyzed using BIAevaluation software ([…].). A zero baseline level was obtained by subtracting the background responses from injection of the analytes through a control flow cell with no ligand immobilized.

B1: AI216611_T0_P0_ECD_mFc (Fc fused AI216611 ECD, SEQ ID NO:104) (Fc fusion)
chain: LQSQGVSLYIPQATINATVKEDILLSVEYSCHGVPTIEWTYSSNWGTQKIVEWKPGTQANISQSHKDRVCTFDNGSIQLFSVGVRDSGYYVITVTERLGSSQFGTIVLHVSEILYEDGSENLYFQGSGEPRGPTIKPCPPCKCPAPNLLGGPSVFIFPPKIKDVLMISLSPIVTCVVVDVSEDDPDVQISWFVNNVEVHTAQTQTHREDYNSTLRVVSALPIQHQDWMSGKEFKCKVNNKDLPAPIERTISKPKGSVRAPQVYVLPPPEEEMTKKQVTLTCMVTDFMPEDIYVEWTNNGKTELNYKNTEPVLDSDGSYFMYSKLRVEKKNWVERNSYSCSVVHEGLHNHHTTKSFSRTPGK
notes: also called AI216611-ECD-Fc
Turning to B1, the binding result is recorded as “binds”.
